Source: patent publication US20250163167A1 (SYNTHEKINE, published 2025)

B1: IL10R binding molecule of SEQ ID NO: 325 (bispecific antibody)
chain: QVQLQESGGGSVQAGGSLRLSCAASRYTYNSYCMGWFRQAPGKEREGVATIDSDGMTRYADSVKGRFTISKDNAKNTLYLQMNSLKPEDTAMYYCAADADCTIAAMTTNPLGQGTQVTVSSGGGSQVQLQESGGGSVQAGGSLRLSCAASGYSNCSYDMTWYRQAPGKEREFVSAIHSDGSTRYADSVKGRFFISQDNAKNTVYLQMNSLKPEDTAMYYCKTDPLHCRAHGGSWYSVRANYWGQGTQVTVSSASHHHHHH
B2: IL10R binding molecule of SEQ ID NO: 326 (bispecific antibody)
chain: QVQLQESGGGSVQAGGSLRLSCTVSRYTASVNYMGWFRQAPGKEREGVATIFTGAGTTYYANSVKGRFTISRDNAKNTAYLQMNSLKPEDTAIYYCAVDFRGGLLYRPAYEYTYRGQGTQVTVSSGGGSQVQLQESGGGSVQAGGSLRLSCAASRYLYSIDYMAWFRQSPGKEREPVAVIYTASGATFYPDSVKGRFTISQDNAKMTVYLQMNSLKSEDTAMYYCAAVRKTDSYLFDAQSFTYWGQGTQVTVSSASHHHHHH
B3: IL10R binding molecule of SEQ ID NO: 322 (bispecific antibody)
chain: QVQLQESGGGSVQAGGSLRLSCAASRYTYNSYCMGWFRQAPGKEREGVATIDSDGMTRYADSVKGRFTISKDNAKNTLYLQMNSLKPEDTAMYYCAADADCTIAAMTTNPLGQGTQVTVSSGGGSQVQLQESGGGSVQAGGSLRLSCAVSGYAYSTYCMGWFRQAPGKEREGVAAIDSGGSTSYADSVKGRFTISKDNAKNTLYLRMNSLKPEDTAMYYCAAVPPPPDGGSCLFLGPEIKVSKADFRYWGQGTQVTVSSASHHHHHH
B4: IL10R binding molecule of SEQ ID NO: 261 (bispecific antibody)
chain: QVQLQESGGGSVQAGGSLRLSCAASRYLYSIDYMAWFRQSPGKEREPVAVIYTASGATFYPDSVKGRFTISQDNAKMTVYLQMNSLKSEDTAMYYCAAVRKTDSYLFDAQSFTYWGQGTQVTVSSGGGSQVQLQESGGGSVQAGGSLRLSCAASGYSYSSYCMGWFRQAPGKEREGVATIDSDGMTRYADSVKGRFTISKDNAKNTLYLQMNSLKPEDTAMYYCAAPLYDCDSGAVGRNPPYWGQGTQVTVSSASHHHHHH
B5: IL10R binding molecule of SEQ ID NO: 324 (bispecific antibody)
chain: QVQLQESGGGSVQAGGSLRLSCAASRYTYNSYCMGWFRQAPGKEREGVATIDSDGMTRYADSVKGRFTISKDNAKNTLYLQMNSLKPEDTAMYYCAADADCTIAAMTTNPLGQGTQVTVSSGGGSQVQLQESGGGSVQAGGSLRLSCGASGYTYSSYCMGWFRQVPGKEREGVAVIDSDGSTSYADSVKGRFTISKDNGKNTLYLQMNSLKPEDTAMYYCAADLGHYRPPCGVLYLGMDYWGKGTQVTVSSASHHHHHH
B6: IL10R binding molecule of SEQ ID NO: 317 (bispecific antibody)
chain: QVQLQESGGGSVQAGGSLRLSCAASGYTYSSYCMGWFRQAPGKEREGVAHIDSDGSTSYADSVKGRFTISKDNAKNTLYLQMNSLKPEDTAMYYCAADPIPGPGYCDGGPNKYWGQGTQVTVSSGGGSQVQLQESGGGSVQAGGSLRLSCGASGYTYSSYCMGWFRQVPGKEREGVAVIDSDGSTSYADSVKGRFTISKDNGKNTLYLQMNSLKPEDTAMYYCAADLGHYRPPCGVLYLGMDYWGKGTQVTVSSASHHHHHH
B7: IL10R binding molecule of SEQ ID NO: 319 (bispecific antibody)
chain: QVQLQESGGGSVQAGGSLRLSCAASRYTYNSYCMGWFRQAPGKEREGVATIDSDGMTRYADSVKGRFTISKDNAKNTLYLQMNSLKPEDTAMYYCAADADCTIAAMTTNPLGQGTQVTVSSGGGSQVQLQESGGGSVQAGGSLRLSCAASRYLYSIDYMAWFRQSPGKEREPVAVIYTASGATFYPDSVKGRFTISQDNAKMTVYLQMNSLKSEDTAMYYCAAVRKTDSYLFDAQSFTYWGQGTQVTVSSASHHHHHH
B8: IL10R binding molecule of SEQ ID NO: 323 (bispecific antibody)
chain: QVQLQESGGGSVQAGGSLRLSCAASRYTYNSYCMGWFRQAPGKEREGVATIDSDGMTRYADSVKGRFTISKDNAKNTLYLQMNSLKPEDTAMYYCAADADCTIAAMTTNPLGQGTQVTVSSGGGSQVQLQESGGGSVQAGGSLRLSCTVSGYTYSSNCMGWFRQAPGKEREGVATIYTGGGNTYYADSVKGRFTISQDNAKNTVYLQMNNLKPEDTAMYYCAAEPLSRVYGGSCPTPTFDYWGQGTQVTVSSASHHHHHH
B9: IL10R binding molecule of SEQ ID NO: 328 (bispecific antibody)
chain: QVQLQESGGGSVQAGGSLRLSCTVSRYTASVNYMGWFRQAPGKEREGVATIFTGAGTTYYANSVKGRFTISRDNAKNTAYLQMNSLKPEDTAIYYCAVDFRGGLLYRPAYEYTYRGQGTQVTVSSGGGSQVQLQESGGGSVQAGGSLRLSCAASGYTYSMYCMGWFRQAPGKEREGVAQINSDGSTSYADSVKGRFTISKDNAKNTLYLQMNSLKPEDTAMYYCAADSRVYGGSWYERLCGPYTYEYNYWGQGTQVTVSSASHHHHHH
B10: IL10R binding molecule of SEQ ID NO: 321 (bispecific antibody)
chain: QVQLQESGGGSVQAGGSLRLSCAASRYTYNSYCMGWFRQAPGKEREGVATIDSDGMTRYADSVKGRFTISKDNAKNTLYLQMNSLKPEDTAMYYCAADADCTIAAMTTNPLGQGTQVTVSSGGGSQVQLQESGGGSVQAGGSLRLSCAASGYTYSMYCMGWFRQAPGKEREGVAQINSDGSTSYADSVKGRFTISKDNAKNTLYLQMNSLKPEDTAMYYCAADSRVYGGSWYERLCGPYTYEYNYWGQGTQVTVSSASHHHHHH
B11: IL10R binding molecule of SEQ ID NO: 329 (bispecific antibody)
chain: QVQLQESGGGSVQAGGSLRLSCTVSRYTASVNYMGWFRQAPGKEREGVATIFTGAGTTYYANSVKGRFTISRDNAKNTAYLQMNSLKPEDTAIYYCAVDFRGGLLYRPAYEYTYRGQGTQVTVSSGGGSQVQLQESGGGSVQAGGSLRLSCAVSGYAYSTYCMGWFRQAPGKEREGVAAIDSGGSTSYADSVKGRFTISKDNAKNTLYLRMNSLKPEDTAMYYCAAVPPPPDGGSCLFLGPEIKVSKADFRYWGQGTQVTVSSASHHHHHH
B12: IL10R binding molecule of SEQ ID NO: 316 (bispecific antibody)
chain: QVQLQESGGGSVQAGGSLRLSCAASGYTYSSYCMGWFRQAPGKEREGVAHIDSDGSTSYADSVKGRFTISKDNAKNTLYLQMNSLKPEDTAMYYCAADPIPGPGYCDGGPNKYWGQGTQVTVSSGGGSQVQLQESGGGSVQAGGSLRLSCTVSGYTYSSNCMGWFRQAPGKEREGVATIYTGGGNTYYADSVKGRFTISQDNAKNTVYLQMNNLKPEDTAMYYCAAEPLSRVYGGSCPTPTFDYWGQGTQVTVSSASHHHHHH
B13: IL10R binding molecule of SEQ ID NO: 318 (bispecific antibody)
chain: QVQLQESGGGSVQAGGSLRLSCAASGYTYSSYCMGWFRQAPGKEREGVAHIDSDGSTSYADSVKGRFTISKDNAKNTLYLQMNSLKPEDTAMYYCAADPIPGPGYCDGGPNKYWGQGTQVTVSSGGGSQVQLQESGGGSVQAGGSLRLSCAASGYSNCSYDMTWYRQAPGKEREFVSAIHSDGSTRYADSVKGRFFISQDNAKNTVYLQMNSLKPEDTAMYYCKTDPLHCRAHGGSWYSVRANYWGQGTQVTVSSASHHHHHH
B14: IL10R binding molecule of SEQ ID NO: 320 (bispecific antibody)
chain: QVQLQESGGGSVQAGGSLRLSCAASRYTYNSYCMGWFRQAPGKEREGVATIDSDGMTRYADSVKGRFTISKDNAKNTLYLQMNSLKPEDTAMYYCAADADCTIAAMTTNPLGQGTQVTVSSGGGSQVQLQESGGGSVQAGGSLRLSCAASRFTYSSYCMGWFRQAPGKEREGVASIDSDGSTSYTDSVKGRFTISKDNAKNTLYLQMNSLKPEDTAMYYCALDLMSTVVPGFCGFLLSAGMDYWGKGTQVTVSSASHHHHHH
B15: IL10R binding molecule of SEQ ID NO: 327 (bispecific antibody)
chain: QVQLQESGGGSVQAGGSLRLSCTVSRYTASVNYMGWFRQAPGKEREGVATIFTGAGTTYYANSVKGRFTISRDNAKNTAYLQMNSLKPEDTAIYYCAVDFRGGLLYRPAYEYTYRGQGTQVTVSSGGGSQVQLQESGGGSVQAGGSLRLSCAASRFTYSSYCMGWFRQAPGKEREGVASIDSDGSTSYTDSVKGRFTISKDNAKNTLYLQMNSLKPEDTAMYYCALDLMSTVVPGFCGFLLSAGMDYWGKGTQVTVSSASHHHHHH

target: T1, human IL-10 receptor (hIL-10R alpha and beta chains) on HEK-Blue IL-10 reporter cells (human, UniProt Q13651 22-578; Q08334 20-325); assay: cell-based or functional assay
T1 sequence 1: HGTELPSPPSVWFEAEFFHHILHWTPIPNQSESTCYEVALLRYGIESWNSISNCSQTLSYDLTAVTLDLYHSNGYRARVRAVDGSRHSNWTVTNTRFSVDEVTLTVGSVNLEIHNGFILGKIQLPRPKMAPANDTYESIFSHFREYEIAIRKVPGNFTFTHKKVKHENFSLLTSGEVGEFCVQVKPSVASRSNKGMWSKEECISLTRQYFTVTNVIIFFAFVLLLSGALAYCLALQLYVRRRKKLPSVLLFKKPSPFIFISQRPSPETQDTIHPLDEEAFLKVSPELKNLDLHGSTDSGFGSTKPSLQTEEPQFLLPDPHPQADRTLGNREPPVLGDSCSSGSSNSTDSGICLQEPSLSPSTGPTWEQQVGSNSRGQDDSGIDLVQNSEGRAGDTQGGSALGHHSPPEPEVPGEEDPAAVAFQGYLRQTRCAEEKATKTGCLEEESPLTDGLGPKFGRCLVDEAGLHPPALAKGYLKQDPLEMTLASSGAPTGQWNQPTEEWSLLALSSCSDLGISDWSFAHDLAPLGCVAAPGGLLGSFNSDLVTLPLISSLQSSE
T1 sequence 2: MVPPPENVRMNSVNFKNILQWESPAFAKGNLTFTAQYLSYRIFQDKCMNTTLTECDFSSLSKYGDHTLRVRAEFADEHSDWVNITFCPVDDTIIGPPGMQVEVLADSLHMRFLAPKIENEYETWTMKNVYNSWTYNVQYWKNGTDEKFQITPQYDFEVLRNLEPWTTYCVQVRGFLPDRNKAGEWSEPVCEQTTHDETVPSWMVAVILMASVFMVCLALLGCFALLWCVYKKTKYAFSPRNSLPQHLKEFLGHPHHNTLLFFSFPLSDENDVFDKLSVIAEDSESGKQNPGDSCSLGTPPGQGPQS

Binder	Abs 630 (25 nM) [Abs 630]	Abs 630 (100 nM) [Abs 630]
B1	0.49	0.42
B2	0.47	0.56
B3	0.46	0.41
B4	0.44	0.34
B5	0.61	0.44
B6	0.45	0.38
B7	0.47	0.36
B8	0.64	0.38
B9	0.44	0.34
B10	0.46	0.4
B11	0.48	0.39
B12	0.48	0.39
B13	0.5	0.45
B14	0.54	0.41
B15	0.52	0.54
